# Test results reported in IntAct's records for PubMed 27478939.
# B1: Purine nucleoside phosphorylase LACC1 (Homo sapiens), Q8IV20 (parent)
# chain: MAEAVLIDLFGLKLNSQKNCHQTLLKTLNAVQYHHAAKAKFLCIMCCSNISYERDGEQDNCEIETSNGLSALLEEFEIVSCPSMAATLYTIKQKIDEKNLSSIKVIVPRHRKTLMKAFIDQLFTDVYNFEFEDLQVTFRGGLFKQSIEINVITAQELRGIQNEIETFLRSLPALRGKLTIITSSLIPDIFIHGFTTRTGGISYIPTLSSFNLFSSSKRRDPKVVVQENLRRLANAAGFNVEKFYRIKTHHSNDIWIMGRKEPDSYDGITTNQRGVTIAALGADCIPIVFADPVKKACGVAHAGWKGTLLGVAMATVNAMIAEYGCSLEDIVVVLGPSVGPCCFTLPRESAEAFHNLHPACVQLFDSPNPCIDIRKATRILLEQGGILPQNIQDQNQDLNLCTSCHPDKFFSHVRDGLNFGTQIGFISIKE
# Variants of: B1
# Details: with fas_human FASN
row,effect of a mutation on the interaction,Variant
1,with no effect,I254V
